± gives the standard error. Variants at the floor of the assay were thinned out.

Sequences and labels used below:
B1: glmS ribozyme (parent)
chain: AUAAAAGCGCCAGAACUACAGAAAUGUAGUUGACGAGGAGGAGGUUUAUCGAAUUUUCGGCGGAUGCCUCCAAA

Holding throughout (settings): with glucosamine-6-phosphate
Data set [1] covers variants of B1. Briefly: self-cleavage kobs at 40 uM GlcN6P; higher = faster cleavage; RNA array. The essentials:
(§1)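 Barcoded ribozyme variants, transcribed in situ by E. coli RNA polymerase on sequenced MiSeq chips, were followed via a hybridised Cy3 probe at 37 °C. Glucosamine-6-phosphate ranged from 40 μM to 10 mM in HEPES/KCl/Mg(OAc)2 buffer. kobs came from decay fits to per-tile medians, and kcat and KM from weighted Michaelis–Menten fits.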

Data set [2] covers variants of B1. Nature of the data set: self-cleavage kobs at 160 uM GlcN6P; higher = faster cleavage; RNA array. The essentials: as §1
Variants of B1 are the subject of data set [3]. Briefly: self-cleavage kobs at 640 uM GlcN6P; higher = faster cleavage; RNA array. The essentials: as §1
Data set [4] covers variants of B1. Briefly: self-cleavage kobs at 2500 uM GlcN6P; higher = faster cleavage; RNA array. The essentials: as §1
The variants in data set [5] derive from B1. Nature of the data set: self-cleavage kobs at 10000 uM GlcN6P; higher = faster cleavage; RNA array. The essentials: as §1

For the variant AUAAAAGCGCCAGAACUACAGAAAUGUAGUUGAGGAGGAGGAGGAUUAUCGAAUUUUCGGCGGAUGCCUCCAAA, in the data set with glucosamine-6-phosphate [1], the “self-cleavage kobs at 40 uM GlcN6P” value is under 1e-05 s⁻¹. For the same variant, the “self-cleavage kobs at 160 uM GlcN6P” value in the data set with glucosamine-6-phosphate [2] is under 1e-05 s⁻¹. Also, the “self-cleavage kobs at 640 uM GlcN6P” value with glucosamine-6-phosphate [3] is under 1e-05 s⁻¹. Moreover, the “self-cleavage kobs at 2500 uM GlcN6P” value in the data set with glucosamine-6-phosphate [4] was under 1e-05 s⁻¹. Also, in the data set with glucosamine-6-phosphate [5], the “self-cleavage kobs at 10000 uM GlcN6P” value is under 1e-05 s⁻¹.

AUAAAAGCGCCAGAACUACAGAAAUGUAGUUGACGAGGAGGUGGUUUAUCGAAUUUUCGACGGAUGCCUCCAAA: in the data set with glucosamine-6-phosphate [1], the “self-cleavage kobs at 40 uM GlcN6P” value is under 1e-05 s⁻¹. The “self-cleavage kobs at 160 uM GlcN6P” value with glucosamine-6-phosphate [2] was under 1e-05 s⁻¹. In the data set with glucosamine-6-phosphate [5], the “self-cleavage kobs at 10000 uM GlcN6P” value is under 1e-05 s⁻¹.

AUAAAAACGCCAGAACUACAGAAAUGUAGGUGACGAGGAGCAGGUUUAUCGAAUUUUGGGCGGAUACCUCCAAA: in the data set with glucosamine-6-phosphate [1], the “self-cleavage kobs at 40 uM GlcN6P” value was under 1e-05 s⁻¹.

AUAAAAGCGCCAGAACUACAGAAAUGUAGUUGAAGAGGAGGAGGUUUAUCAAAUUUUCGGCGGAUGCCUCCAAA: the “self-cleavage kobs at 40 uM GlcN6P” value with glucosamine-6-phosphate [1] is under 1e-05 s⁻¹. In addition, the “self-cleavage kobs at 160 uM GlcN6P” value with glucosamine-6-phosphate [2] is under 1e-05 s⁻¹. Further, the “self-cleavage kobs at 2500 uM GlcN6P” value with glucosamine-6-phosphate [4] is under 1e-05 s⁻¹.

Take AUAAAAGCGCCAGAACUACAGAAAUGUAGUUGACGAGGAGGAGUUUUUUCGAAUUUUCGGCGGAUGCCUCCAAA: in the data set with glucosamine-6-phosphate [1], the “self-cleavage kobs at 40 uM GlcN6P” value is under 1e-05 s⁻¹. Further, the “self-cleavage kobs at 160 uM GlcN6P” value with glucosamine-6-phosphate [2] is under 1e-05 s⁻¹. For the same variant, the “self-cleavage kobs at 640 uM GlcN6P” value in the data set with glucosamine-6-phosphate [3] is under 1e-05 s⁻¹. The “self-cleavage kobs at 2500 uM GlcN6P” value in the data set with glucosamine-6-phosphate [4] was under 1e-05 s⁻¹.

As to AUAAAAGCGCCAGAACUACAGAAAUGUAGUUGCCGAGGAGGUGGUUUAUCGAAUUUUCGGAGGAUGCCUCCAAA, the “self-cleavage kobs at 40 uM GlcN6P” value in the data set with glucosamine-6-phosphate [1] was under 1e-05 s⁻¹.

In the case of AUAAAAGCGCCAGAACUACAGAAAUGUAUUUGACGAGGAGGAGGUUUAUCGAAUUUUCGGCGGAUGCCUUCAAA, in the data set with glucosamine-6-phosphate [1], the “self-cleavage kobs at 40 uM GlcN6P” value is 0.000204 ± 2.4e-05 s⁻¹. Further, the “self-cleavage kobs at 160 uM GlcN6P” value with glucosamine-6-phosphate [2] came out at 0.000273 ± 4.2e-05 s⁻¹. Besides, in the data set with glucosamine-6-phosphate [3], the “self-cleavage kobs at 640 uM GlcN6P” value amounted to 0.000574 ± 7.2e-05 s⁻¹. Further, the “self-cleavage kobs at 2500 uM GlcN6P” value with glucosamine-6-phosphate [4] was determined as 0.00187 ± 0.00047 s⁻¹. Besides, the “self-cleavage kobs at 10000 uM GlcN6P” value with glucosamine-6-phosphate [5] is 0.00452 ± 0.00093 s⁻¹.

For the variant AUAAAAGCGCCAGAACUACAGAAAUGUAGUCGACGAGGAGGAGGUUUAUCGAAUUUUCGCCGGAUGCCUCCAAA, the “self-cleavage kobs at 40 uM GlcN6P” value with glucosamine-6-phosphate [1] is under 1e-05 s⁻¹. Also, in the data set with glucosamine-6-phosphate [5], the “self-cleavage kobs at 10000 uM GlcN6P” value is under 1e-05 s⁻¹.

Consider AUAAAAGCUCCAGAAUUACAGAAAUGUAGUUGACGAGGAGGAUGUUUAUCGAUUUUUCGGCGGAUGCCUCCAAA, for which the “self-cleavage kobs at 40 uM GlcN6P” value with glucosamine-6-phosphate [1] was under 1e-05 s⁻¹. In the data set with glucosamine-6-phosphate [5], the “self-cleavage kobs at 10000 uM GlcN6P” value was under 1e-05 s⁻¹.

In the case of AUAAAAGCGCCAGAACUACAGAAAUGUAGUUGAUGAGGAUGAGGUUUAUUGAAUUUUCGGCGGAUGCCUCCAAA, the “self-cleavage kobs at 40 uM GlcN6P” value with glucosamine-6-phosphate [1] is under 1e-05 s⁻¹. Further, the “self-cleavage kobs at 640 uM GlcN6P” value in the data set with glucosamine-6-phosphate [3] was under 1e-05 s⁻¹. The “self-cleavage kobs at 10000 uM GlcN6P” value in the data set with glucosamine-6-phosphate [5] was under 1e-05 s⁻¹.

AUAAAAGCGCCAGAACUACAGAAAUGUAGUUGACGAGGAGGAGGUUUAGCGAAUGUUCGGCGGAGGCCUCCAAA: the “self-cleavage kobs at 40 uM GlcN6P” value in the data set with glucosamine-6-phosphate [1] is under 1e-05 s⁻¹. The “self-cleavage kobs at 10000 uM GlcN6P” value in the data set with glucosamine-6-phosphate [5] worked out at 6.42e-05 ± 1.5e-05 s⁻¹.

With AUAAAAGCGCCAGAACUACAGAAAUGUAGUUGACGAGGAGGAGGUUAAUCGACUUUUCGGCGGAUGCCUCCAAA, the “self-cleavage kobs at 40 uM GlcN6P” value with glucosamine-6-phosphate [1] was 0.000173 ± 2.9e-05 s⁻¹. Also, the “self-cleavage kobs at 160 uM GlcN6P” value with glucosamine-6-phosphate [2] worked out at 0.000506 ± 7.8e-05 s⁻¹. For the same variant, the “self-cleavage kobs at 640 uM GlcN6P” value with glucosamine-6-phosphate [3] stood at 0.00103 ± 0.00018 s⁻¹. For the same variant, in the data set with glucosamine-6-phosphate [4], the “self-cleavage kobs at 2500 uM GlcN6P” value came out at 0.00465 ± 0.001 s⁻¹. For the same variant, the “self-cleavage kobs at 10000 uM GlcN6P” value in the data set with glucosamine-6-phosphate [5] came out at 0.00663 ± 0.0016 s⁻¹.

Consider AUAAAAGUACCAGAAUUACAGAAAUGUAGUUGACGAGGAGGAGGUUUAUUGUAUUUUCGGCGGAUGCCUCCAAA, for which, in the data set with glucosamine-6-phosphate [1], the “self-cleavage kobs at 40 uM GlcN6P” value was under 1e-05 s⁻¹. Moreover, the “self-cleavage kobs at 2500 uM GlcN6P” value with glucosamine-6-phosphate [4] was under 1e-05 s⁻¹. Besides, the “self-cleavage kobs at 10000 uM GlcN6P” value in the data set with glucosamine-6-phosphate [5] is under 1e-05 s⁻¹.

Source of the values: the supplement of paper PMC7125110.
